The results in this text go back to patent publication US20210032351A1 (XDCEXPLORER SHANGHAI, published 2021).

For orientation: EC50 means the concentration at which the effect is half-maximal. High values mean a need for much substance, low ones an effect from little substance.

Assay [1] addresses T1, human EGFRvIII-hFc protein (human, UniProt P00533 25-645).
T1 construct: extracellular domain; made in HEK293 cells, purified on protein A; also called immunogen A; hFc-tagged EGFRvIII protein; not shown: human IgG Fc fragment (hFc) of the pCpC vector
In words: ELISA, coated EGFRvIII-hFc, antibody 1 nM. As for the experimental part:
(§1) The purified immunogen A (EGFRvIII-hFc) obtained in example 1 (for the preparation method, see step (I) in example 1) is diluted with PBS to a final concentration of 1.0 μg/mL, and then added to a 96-well ELISA plate at 100 μl/well. The plate is sealed with a plastic film and incubated at 4° C. overnight. The next day, the plate is washed twice with a plate washing solution [PBS+0.01% (v/v) Tween20], and added with a blocking solution [PBS+0.01% (v/v) Tween20+1% (w/w) BSA] for blocking 2 hours at room temperature. The blocking solution is discarded, and the purified EGFRvIII antibody obtained in example 2 is added at 100 μl/well. The plate is incubated for 2 hours at 37° C., and then washed 3 times with the plate washing solution [PBS+0.01% (v/v) Tween20]. The plate is added with an HRP (horseradish peroxidase) labeled secondary antibody (purchased from Sigma), incubated at 37° C. for 2 hours, and then washed 3 times with the plate washing solution [PBS+0.01% (v/v) Tween20]. The plate is added with 100 μl of TMB substrate/well, incubated for 30 minutes at room temperature, and then added with 100 μl of stopping solution (1.0N HCl)/well. A450 nm value is read using an ELISA plate reader (SpectraMax 384plus, purchased from Molecular Device), and the results are shown in FIG. 6 and table 10.
For orientation: In an ELISA, binding on a coated surface is turned into a signal by an enzyme label.

Assay [2] concerns the target T1, human EGFRvIII-hFc protein. In words: ELISA, coated EGFRvIII-hFc, antibody 10 nM. The protocol: as §1
For assay [3], the target named is T1, human EGFRvIII-hFc protein. In words: ELISA, coated EGFRvIII-hFc, antibody 0.01 nM. The protocol:
as §1

Assay [4] addresses T1, human EGFRvIII-hFc protein. In words: ELISA, coated EGFRvIII-hFc, antibody 0.001 nM. As for the experimental part: as §1
Assay [5] has as its target T1, human EGFRvIII-hFc protein. In words: ELISA, coated EGFRvIII-hFc, antibody 100 nM. The protocol:
as §1

Assay [6] addresses T1, human EGFRvIII-hFc protein. In words: ELISA, coated EGFRvIII-hFc, antibody 0.1 nM. As for the experimental part:
as §1

Assay [7] addresses T2, human EGFR protein (wild-type), on cells (human, UniProt P00533 25-1210).
T2 construct: whole, on cells; transfected on CHO-K1 cells; endogenous on the human cell lines; the cell is named under assay; also called wild-type EGFR; hEGFR
In words: FACS on U87MG and HEB cells. The protocol: (§2) The collected cells are suspended to 2×10⁶ cells/mL with an FACS buffer (HBSS+1% BSA, with the percentage being the mass percentage), added to a 96-well FACS reaction plate at 100 μL/well, then added with 100 μL/well of the purified EGFRvIII antibody (samples to be tested) obtained in example 2, and incubated on ice for 2 hours. The plate is centrifugally washed twice with the FACS buffer, added with 100 μL/well of a fluorescence (Alexa 488) labeled secondary antibody (purchased from Invitrogen), and then incubated on ice for 1 hour. The plate is centrifugally washed 3 times with the FACS buffer, added with 100 μL/well of a fixing solution [4% (v/v) paraformaldehyde] for suspending the cells, and centrifugally washed twice with the FACS buffer after 10 minutes. The cells are suspended in 100 μL of the FACS buffer, and the results are detected and analyzed by FACS (FACS Calibur, purchased from BD). Data analysis is performed by using the software (CellQuest) to obtain the mean fluorescence intensity (MFI) of the cells. Data is further analyzed by using the software (GraphPad Prism5) to perform data fitting and calculate EC50. […] A431 cells (human epidermal cell cancer cell lines) have a large amount of wild-type EGFR protein expressed on the surface thereof. […] U87MG cells (human glioma cell lines) have a small amount of wild-type EGFR protein expressed on the surface thereof, while HEB cells (human glioma cell lines) have a high level of wild-type EGFR protein expression on the surface thereof.

Assay [8] deals with T1, human EGFRvIII-hFc protein. In words: ELISA, coated EGFRvIII-hFc, antibody 0.0001 nM. As for the experimental part: as §1
For assay [9], the target named is T3, human EGFRvIII-hFc protein (human, UniProt P00533 25-645).
T3 construct: extracellular domain; also called immunogen A; hFc-tagged EGFRvIII protein; not shown: human IgG Fc fragment (hFc) of the pCpC vector
In words: ELISA, EGFRvIII-hFc coated. As for the experimental part:
as §1, with “temperature. […]” for “temperature. The blocking solution is discarded, and the purified EGFRvIII antibody obtained in example 2 is added at 100 μl/well.”, “FIG. 11” for “FIG. 6”, “table 19.” for “table 10.”

The target of assay [10] is T4, human wild-type EGFR protein on the cell surface (human, UniProt P00533 25-1210).
T4 construct: whole, on cells; Endogenous on A431, HEB, U87MG cells and normal human primary hepatocytes; transfected on CHOk1-EGFR cells; The cell is named under assay; also called A431; HEB
In words: FACS on CHOk1-EGFR cells. The protocol:
as §2, with “The cells are washed twice with the HBSS buffer and are counted, and then the cells are diluted with the HBSS buffer to 2×10⁶ cells/ml, added with 1% goat serum blocking solution, with the percentage being the mass percentage, and incubated on ice for 30 minutes, and then centrifugally washed twice with the HBSS buffer. The collected” for “The collected”

The target of assay [11] is T5, human EGFRvIII protein on the cell surface (human, UniProt P00533 25-1210).
T5 construct: whole, on cells; the cell line is named under assay; also called hEGFRvIII; U87MG-hEGFRvIII
In words: FACS on CHOk1-EGFRvIII cells. As for the experimental part:
The desired cells are subjected to an expanded culture to 90% confluence in a T-75 cell culture flask; the medium is sucked out, and the cells are washed twice with a HBSS buffer (Hanks Balanced Salt Solution) (purchased from Invitrogen), and then treated with an enzyme-free cell dissociation solution (Versene solution: purchased from Life Technology) and collected. The cells are washed twice with the HBSS buffer and are counted, and then the cells are diluted with the HBSS buffer to 2×10⁶ cells/ml, added with 1% goat serum blocking solution, with the percentage being the mass percentage, and incubated on ice for 30 minutes, and then centrifugally washed twice with the HBSS buffer. The collected cells are suspended to 2×10⁶ cells/mL with an FACS buffer (HBSS+1% BSA, with the percentage being the mass percentage), added to a 96-well FACS reaction plate at 100 μL/well, then added with 100 μL/well of the purified EGFRvIII antibody (samples to be tested) obtained in example 2, and incubated on ice for 2 hours. The plate is centrifugally washed twice with the FACS buffer, added with 100 μL/well of a fluorescence (Alexa 488) labeled secondary antibody (purchased from Invitrogen), and then incubated on ice for 1 hour. The plate is centrifugally washed 3 times with the FACS buffer, added with 100 μL/well of a fixing solution [4% (v/v) paraformaldehyde] for suspending the cells, and centrifugally washed twice with the FACS buffer after 10 minutes. The cells are suspended in 100 μL of the FACS buffer, and the results are detected and analyzed by FACS (FACS Calibur, purchased from BD). Data analysis is performed by using the software (CellQuest) to obtain the mean fluorescence intensity (MFI) of the cells. Data is further analyzed by using the software (GraphPad Prism5) to perform data fitting and calculate EC50. […] A431 cells (human epidermal cell cancer cell lines) have a large amount of wild-type EGFR protein expressed on the surface thereof.

B1: Murine anti-53D8 (antibody, V domains shown)
VH: QVQLQQSGAELARPGASVKMSCKASGYTFTSYTMHWVKQRPGQGLEWIGYINPSSGYTKYNQIFKDKATLTADKSSSTAYMQLSSLTSEDSAVYYCTRGGGRGFAYWGQGTLVTVSA
VL: DILMTQSPSSMSVSLGDTVSITCHASQDINSNIGWLQQKPGKSFKGLIYHGTNLEDGVPSRFSGSGSGADYSLTISSLESEDFADYYCVQYAQFPFTFGSGTKLEIK
notes: murine hybridoma antibody; also called 53D8H4
As to B1, the OD450 nm in assay [1] turned out to be 3.2; in assay [2], 3.69; in assay [3], 0.16; in assay [4], 0.1; in [5], 3.72; in assay [6], 0.64. This molecule also had an OD450 nm in [8] of 0.09. Further, in assay [7], the binding result is “no binding”.

B2: c75G7C6-1 (antibody, human IgG1, V domains shown)
VH: EVQLQQSGPELVKPGASVKIPCKASGYTFTDYNMDWVKQSHGKSLEWIGDINPNNADTIYNQKFKGKATLTVDKSSSTAYMELRSLTSEDTAVYYCARGDYDGYYPVYYAMDYWGQGTSVTVSS
VL: ENVLTQSPAIMSASPGEKVTMTCRASSSVSSSYLHWYQQKSGASPKLWIFSTSNLAAGVPARFSGSGSGTSYSLTVSSVEAEDAATYYCQQYSGYPLTFGAGTKLELK
notes: Chimeric 75G7C6 with NG of heavy chain CDR2 mutated to NA; also called c754G7C6-1; mutant chimeric antibody NG/NA
For the molecule B2, in assay [9], the EC50 was determined as 0.02 nM and the “Maximum OD450 value” amounted to 3.44 OD450. In addition, in [10], the EC50 was found to be 11.3 nM and the “Maximum mean fluorescence intensity” value is 134000 MFI. For the same molecule, in assay [11], the response was half-maximal at 7.45 nM (EC50) and the “Maximum mean fluorescence intensity” value was found to be 110000 MFI.

B3: c75G7C6-3 (antibody, human IgG1, V domains shown)
VH: EVQLQQSGPELVKPGASVKIPCKASGYTFTDYNMDWVKQSHGKSLEWIGDINPNNGDTIYNQKFKGKATLTVDKSSSTAYMELRSLTSEDTAVYYCARGDYEGYYPVYYAMDYWGQGTSVTVSS
VL: ENVLTQSPAIMSASPGEKVTMTCRASSSVSSSYLHWYQQKSGASPKLWIFSTSNLAAGVPARFSGSGSGTSYSLTVSSVEAEDAATYYCQQYSGYPLTFGAGTKLELK
notes: Chimeric 75G7C6 with DG of heavy chain CDR3 mutated to EG; Human IgG1/kappa; also called mutant chimeric antibody DG/EG
For B3, in assay [9], it took 0.54 nM to reach a half-maximal effect (EC50) and the “Maximum OD450 value” was found to be 1.86 OD450. Moreover, in assay [10], the EC50 is 44.8 nM and the “Maximum mean fluorescence intensity” value was 84700 MFI. Moreover, in assay [11], the EC50 was determined as 24.8 nM and the “Maximum mean fluorescence intensity” value turned out to be 94100 MFI.

B4: c75G7C6-2 (antibody, human IgG1, V domains shown)
VH: EVQLQQSGPELVKPGASVKIPCKASGYTFTDYNMDWVKQSHGKSLEWIGDINPNQGDTIYNQKFKGKATLTVDKSSSTAYMELRSLTSEDTAVYYCARGDYDGYYPVYYAMDYWGQGTSVTVSS
VL: ENVLTQSPAIMSASPGEKVTMTCRASSSVSSSYLHWYQQKSGASPKLWIFSTSNLAAGVPARFSGSGSGTSYSLTVSSVEAEDAATYYCQQYSGYPLTFGAGTKLELK
notes: Chimeric 75G7C6 with NG of heavy chain CDR2 mutated to QG; also called c754G7C6-2; mutant chimeric antibody NG/QG
Consider B4, for which the EC50 came out at 0.03 nM in assay [9], 16.9 nM in [10] and 11.6 nM in [11]. For the same molecule, the “Maximum OD450 value” in assay [9] was found to be 3.23 OD450. Further, the “Maximum mean fluorescence intensity” value in [10] was determined as 130000 MFI; in assay [11], 111000 MFI.
